Assay results as given in the DeepSol protein solubility set.

assay: soluble on expression in E. coli; label from the status in PepcDB or PDB records

Sequence	soluble on expression in E. coli
MSLPEKLPYLVELSPGRRNHFAYYNYHTYEDGSDSRDKPKLYRLQLSVTEVGTEKLDDNSIQLFGPGIQPHHCDLTNMDGVVTVTPRSMDAETYVEGQRISETTMLQSGMKVQFGASHVFKFVDPSQDHALAKRSVDGGLMVKGPRHKPGIVQETTFDLGGDIHSGTALPTSKSTTRLDSDRVSSASSTAERGMVKPMIRVEQQPDYRRQESRTQDASGPELILPASIEFRESSEDSFLSAIINYTNSSTVHFKLSPTYVLYMACRYVLSNQYRPDISPTERTHKVIAVVNKMVSMMEGVIQKQKNIAGALAFWMANASELLNFIKQDRDLSRITLDAQDVLAHLVQMAFKYLVHCLQSELNNYMPAFLDDPEENSLQRPKIDDVLHTLTGAMSLLRRCRVNAALTIQLFSQLFHFINMWLFNRLVTDPDSGLCSHYWGAIIRQQLGHIEAWAEKQGLELAADCHLSRIVQATTLLTMDKYAPDDIPNINSTCFKLNSLQLQALLQNYHCAPDEPFIPTDLIENVVTVAENTADELARSDGREVQLEEDPDLQLPFLLPEDGYSCDVVRNIPNGLQEFLDPLCQRGFCRLIPHTRSPGTWTIYFEGADYESHLLRENTELAQPLRKEPEIITVTLKKQNGMGLSIVAAKGAGQDKLGIYVKSVVKGGAADVDGRLAAGDQLLSVDGRSLVGLSQERAAELMTRTSSVVTLEVAKQGAIYHGLATLLNQPSPMMQREGHHHHHH	soluble
MSLQAELVIKNGLVILETGEVITDVAVQGGKIVAIGQDLSGERVIDATGLVVSPGMVDAHVHITDPGGGYRDEWEGYVTGTAACAKGGVTTFMEMPLNQIPATVDKTSLEIKYKAGENKLKVDVGSFGGVVPTNLADGIQELDEGGVSGYKCFLGTCGDRSIEGDFQNVDDYSLYEGMKQVAKTGKVLAIHAENAPITDKLGAVAYQNGETTLAAYVATRPVFTEVEAIQKAILFAKETGCRIHICHVACQEGVEEVLKAQAEGVDVTCETCTHYLYFTTDELDAIGPVVKCSPPIRDADQQAALWNHVQTGGIAFVTSDHSPCTPDLKDTTNAFEAWGGISGVQNNVDVLFDEAVQKRGLSLKQFADMIAANPADRYHLAQKGRISIGKDADFVLIKPNAPYILKAEDLEYRNKISPYIGREIGAQVIQTILRGETIYAQETGVTEAFNGVFIKNEGHHHHHH	soluble
MSLQAHCEEFRVCAMCRVLRVNRSGYYAWLCSPNSERAKEDDRLLGLIKHHWLASGSVYGHRKITTDLRDLGERCSRHRVHRLMRTEGLRAQVGYGRKPRFHGGMQCKAAANLLDRQFDVTEPDTAWASDFTFIRTHEGWMYLAVVIDLFSRQVVGWAMRDRADTELVVQAVLSAVWRRKPNTGCLVHSDQGSVYTSDDWRSFLASHGLVCSMSRRGNCHDNAPVESFFGLLKRERIRRRTYPTKDAARAEVFDYIEMFYNPNRRHGSTGDLSPVEFERRYAQRGSEGHHHHHH	not soluble
MSLQIQGQIVDIENKRIYSGEITIQNGKIISIIEKNHEVKNYILPGFIDAHIHIESSMLVPSEFAKIAVLHGTVATISDPHEIANVLGKKGVYYMIENGKQVPLKFHFGAPSCVPATAFETAGAIIDSEEIKELMASPDIYYLSEMMNYPGVLFDDDEVLKKIAWAKHFNKPIDGHAPGLRGEPIKKYISAGITTDHECFTYSEAQEKLSLGMKVIIREGSAAKNFEALIDLLPANYENMMFCSDDKHPDDLILGHINLLCARAVAKGIDVFKILQVACVNPVHHYKMKVGLLKKNDAADFIVVEDLVNFKVNKTYINGELVAENGQSFVENINFETPNNFNITKKKISDFEIPSLAEKIRVIEALEGQLITNEIHHNSFIKNGKLVSDIENDILKMAVVNRYQNTTPAIAFIKNFGLKKGAIASSVAHDCHNIVVVGTSDEEICNAVNLIIKNTGGICAVNGTQNKSLALPVAGIMSDKDAWETGKLYQEIDAMAKDLGSTLKAPFMTLSFMALLVIPDLKLSDKGLFSGNTFSFVDLNVEEGHHHHHH	soluble
MSLQNIRFGECINSPYVKPKRVFYTERGIEKSWDVVEAHDSVSVLLFDPKKRAFVLVKQFRPAVFLKGTSGYTYELCAGIVDKPGKSLEVIAQEEILEECGYSLSIDSLERITSFYTSVGFAGSRQTLFYAEVEDSLRQGEGGGVESENIEVVHLPLLEARAFMLDEERPKTPGLLFAFMWFFERHPKNEGHHHHHH	soluble
MSLQPHLICLDLDGTLLNDNKEISSYTKQVLNELQQRGHQIMIATGRPYRASQMYYHELNLTTPIVNFNGAYVHHPKDKNFKTCHEILDLGIAQNIIQGLQQYQVSNIIAEVKDYVFINNHDPRLFEGFSMGNPRIQTGNLLVHLKESPTSILIEAEESKIPEIKNMLTHFYADHIEHRRWGAPFPVIEIVKLGINKARGIEQVRQFLNIDRNNIIAFGDEDNDIEMIEYARHGVAMENGLQELKDVANNITFNNNEDGIGRYLNDFFNLNIRYYEGHHHHHH	soluble
MSLQPNDITFFQRFQNDILAGRKTITIRDASESHFKAGDVLRVGRFEDDGYFCTIEVTGTSTVTLDTLNEKHAQQENMSLDELKRVIAEIYPNQTQFYVIDFKCLEGHHHHHH	soluble
MSLQPPFSILFVDDDEMSRNHFARAMSADYKVYVAQSADEAITVLGKHASEIAVLVTDFRMPGRDGDELLREVAHEYPQIVRILVTAYADKDMLLQTVNTGDVFRIIEKPLRTDMVREVLHLATARYTERETRQQRLLAMDETLAFLAHELNTPLATISLFARSVENDVAEQYDPERQREIGLAAKSMLNNAQYCLTLISSFWATVHKSGGQKSASGGGTRAVRATRLIATLLDTYPFVASQRDWVKVDVEGDFVVHAMPNCVALVLSSLLSNALRALDGGSAPVLRLEVVAFPEPEIRIRDNGPGIAPEVKARLLQDPVTTYAGAGGHGMGMIFCNRIMQSFGGCLRIESTVGAGTTVTMGFPGFNSRMHSADEGHHHHHH	soluble
MSLQQGINKPIFQQAKLFRYQLPFKIPIVFKGIKLTAREGVILQVQNDKGEFNFAEIAPLPGFSKETLQQATAQIIALLNTPPLNSQSDILLYPSVAFALDCILHNIPISELFKTAESIPLLQGDNHSVLKQYLQMNKPNSVKLKIGRQSVAKDITLFSALSALNNNLLIRCDANQSWTFAQADLFFANINTQLIDYIEEPTASLSDNINLAERYEVQLALDETLQQKQFQYQHHRCFKALILKPTLIGSFERLNYFIKTAKKFHLSVSISSSFESPLGLSQLAFMASQWSKEVDISCGLDTLKFFESAILNKNSDKKLDNKTPINQQVKHLECLWTSNEGHHHHHH	soluble
MSLQQYEILLDSGTNELEIVKFGVGENAFGINVMKVREIIQPVEVTSVPHSHQHVEGMIKLRGEILPVISLFSFFGVEPEGSKDEKYIVTEFNKRKIVFHVGSVSQIHRVSWEAIEKPTSLNQGMERHLTGIIKLEDLMIFLPDYEKIIYDIESDSGVDTYNMHTEGFDERRTDKKLIIVEDSPLLMRLLQDELKEAGYNNIASFENGKEAYEYIMNLAENETDLSKQIDMIITDIEMPKMDGHRLTKLLKENPKSSDVPVMIFSSLITDDLRHRGEVVGADEQISKPEISDLIKKVDTYVIEGHHHHHH	soluble
MSLQSADESTFDRIRRTKKLRIGAVAGGAPYYNKDLATGQWKGFYIDISKALADELECQLEITETTWGNSVLDLQANKIDIFFGLNPTPKRALVVDFSVPVFSNAFTMLTRKDFAPKTWAELNDPNVKIAVDVGSSHDQVVSRLCPKAQIVRLKTADEATMALVSGRVDAQCIILMLALTVRKKNPNVGQLLVPTPVFSTTSNAGFRRENDKTWRDYVNTWIEYNKGLGFIRSAIVTNMELVGVTEADMPAGIQEGHHHHHH	soluble
MSLQSSEAIDTEPKTISPVPEGRPVLVLDLDETCIYSTPAKPEKQQNFPIRIKRRNVFIQVRPGMQECIRRLSEKYEIFFYTASTKIYANKVIDAIAPFVDNEHRFFVSRDQLKDLTLINRPLGKVLLLDNSACSAQKNNLLLIKTWIGDPNDNAFTNEVMPLLDNLVKESDIPSACRNLVSSRRYPSLYVIRSEGHHHHHH	soluble
MSLQTKHIDDLKEALMCQRNNDDKLEDLVGKIVNDYHTYAGKRSELSYRCCAHYFAPSWNTPIENSMLWMGGCRPSSFIRLIYALCGSQAETQLSQYLLKIDDDFDINHGGFMSDLTATQLGKLNDLHLEVIKKEDKITKTSANFQDDVADLPIADVVHADVAVEDALDKHEEGMAVLLAEADKLRFETLRKIVDVVTPLQAVEFLLAGKRLQLSLHDRGRVRADVCGGVGGAAV	soluble
